Experimental data reported in the supplement of paper PMC6757056.
± gives the standard deviation of the averaged measurements.

B1: library; a variant is named by its letters at N, in order (parent)
chain: GCUGUCACCGGUGCUUGGUACGUUAUAUUCAGCCGGUCUGAUGAGUCUNNNNNNAGACGAAACAGC

What was measured:
(6R,S)-folinic acid [1] = variants of: B1; assay: FACS-Seq fitted mean relative fluorescence mCherry/BFP without ligand (log10 relative fluorescence); HEK293T overexpressing SLC46A1; higher = higher reporter protein expression; settings: without (6R,S)-folinic acid; ligand present: no
Description: (§1)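 Hammerhead (sTRSV) ribozyme switch libraries with a ligand aptamer grafted on stem I and a randomized N4-6 loop II, cloned into the 3' UTR of mCherry and transiently transfected into HEK293T cells; RNA-Seq 72 h post transfection with ligand added 1 h before transfection; RNA read count / plasmid DNA read count normalized to the non-cleaving sTRSVctl (x100), log10; sequences with >100 DNA reads. FACS-Seq: lentiviral library sorted into 6 bins after 48 h ligand, log-normal fit mean of mCherry/BFP scaled to controls. Printed sequences are partial switch sequences.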

(6R,S)-folinic acid [2] = variants of: B1; assay: normalized RNA/DNA level without ligand (relative to sTRSVctl = 100) (log10 (% of sTRSVctl)); HEK293T overexpressing SLC46A1; higher = less ribozyme self-cleavage, higher mRNA level; settings: without (6R,S)-folinic acid; ligand present: no
Description: as §1

(6R,S)-folinic acid [3] = variants of: B1; assay: FACS-Seq fitted mean relative fluorescence mCherry/BFP with ligand (log10 relative fluorescence); HEK293T overexpressing SLC46A1; ligand concentration (+) FACS-Seq: 6 mM; higher = higher reporter protein expression; settings: with (6R,S)-folinic acid; ligand present: yes
Description: as §1

(6R,S)-folinic acid [4] = variants of: B1; assay: normalized RNA/DNA level with ligand (relative to sTRSVctl = 100) (log10 (% of sTRSVctl)); HEK293T overexpressing SLC46A1; ligand concentration (+) RNA-Seq: 6 mM; higher = less ribozyme self-cleavage, higher mRNA level; settings: with (6R,S)-folinic acid; ligand present: yes
Description: as §1

Variant | FACS-Seq fitted mean (log10) ((6R,S)-folinic acid [1]) | normalized RNA/DNA level without ligand (log10) ((6R,S)-folinic acid [2]) | FACS-Seq fitted mean (log10) ((6R,S)-folinic acid [3]) | normalized RNA/DNA level with ligand (log10) ((6R,S)-folinic acid [4])
UAAAAG | 0.335 ± 0.03 | 1.7583 ± 0.00058 | 0.493 ± 0.023 | 1.96 ± 0.049
AAUGGG | 0.225 ± 0.07 | 1.8 ± 0.022 | 0.233 ± 0.18 | 2 ± 0.021
GCUCAA | 0.44 ± 0.027 | 1.978 ± 0.0021 | 0.374 ± 0.1 | 1.985 ± 0.013
CAGCUG | 0.118 ± 0.025 | 2.073 ± 0.01 | 0.1 ± 0.12 | 2.06 ± 0.022
AAGAAA | 0.107 ± 0.0018 | 1.935 ± 0.0037 | 0.0952 ± 0.071 | 1.99 ± 0.021
GCUCUG | 0.433 ± 0.072 | 1.99 ± 0.024 | 0.646 ± 0.038 | 2.03 ± 0.037
UUAAUA | 0.0221 ± 0.032 | 2.006 ± 0.0071 | 0.171 ± 1.6 | 2.02 ± 0.022
ACAUGG | 0.326 ± 0.041 | 1.916 ± 0.0031 | 0.203 ± 0.12 | 2.04 ± 0.046
UAUAAA | 0.216 ± 0.075 | 1.92 ± 0.0034 | 0.0605 ± 0.19 | 1.97 ± 0.022
GUUACC | 0.497 ± 0.022 | 2.047 ± 0.013 | 0.281 ± 0.23 | 2.03 ± 0.026
UAUUGG | -0.0117 ± 0.013 | 1.59 ± 0.037 | 0.338 ± 0.024 | 1.91 ± 0.034
UCCGCG | 0.277 ± 0.014 | 1.842 ± 0.0081 | 0.502 ± 0.16 | 1.96 ± 0.041
UCAGGU | 0.531 ± 0.015 | 1.9204 ± 0.0013 | 0.603 ± 0.23 | 1.99 ± 0.024
CCCUUC | 0.28 ± 0.13 | 2.141 ± 0.0043 | 0.0122 ± 0.3 | 2.05 ± 0.035
UGUAAA | 0.596 ± 0.02 | 1.924 ± 0.0087 | 0.761 ± 0.19 | 1.993 ± 0.0085
AUAGAG | 0.0276 ± 0.0023 | 1.52 ± 0.0028 | 0.431 ± 0.14 | 1.89 ± 0.034
AUAGAU | 0.365 ± 0.1 | 1.925 ± 0.011 | 0.406 ± 0.1 | 2 ± 0.054
